Measurements: the domain aggregation screens of Martell et al. (2025)

Experiment: soluble fraction after stress (log2 fold change); higher = more stays soluble; pooled small domains, quantitative proteomics
Conditions: stress: 50 degC
Summary of the method: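 Each library was heated to 50°C as a stress step. The libraries, made up of small protein domains, were pooled and analysed at high throughput by quantitative proteomics. The reported value is the base-two logarithm of the fold change in each protein's soluble amount after stress, taken as a measure of aggregation propensity. The higher the value, the more protein stays in solution.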

Which “soluble fraction (log2)” value does the source give for “HMQAATQVNIVGLFSNKAVVIINGGKPKTLSVGQTSEGVKLLAADSQTATLQIEGKTQQLGMGQAASVGG” here?
The value was 0.134.

With “HMLPSWPGVSEFEVARLLRRGRARGSLTLDEVIDVVRDAELTSELIAGIRSSLRAEGIDFEET” as the sequence, how does the “soluble fraction (log2)” value read?
The value was -0.475.

Which “soluble fraction (log2)” value does the source give for “HMDIYENIDKELSKQGKSRRKLAIAAGIPPSTFQSMMERKRGLSVENLRKIAEVLNLKWYDLL” here?
The value was -0.195.

Which “soluble fraction (log2)” value does the source give for “HMDDLTTASIKQQLKALIDEENKNKPLSDQKLTDALKAQGIDISRRTVAKYREAMNIPGSSKRKRF” here?
Its value is 0.0936.

Which “soluble fraction (log2)” value does the source give for “HMQISLAAARVNAGLTQEEVAKAMKVGKQTIVSWEKGNSEPKMSQSRELSELYKIPLDYIFYP” here?
Its value is -0.322.

For “HMQIVPVDYSTFMQSIDDKTVDHVEIQSNQILYTVKDDHKKYKTGIMNDPTLAQRLMESGATFTQD”, which “soluble fraction (log2)” value is on record?
The value was 0.0939.

With “HMIYRTTSVPIDNISTQKFNLQEGWIEMNKNEVEDFIRQKNLELVVTDSNVMLDKFALNGDPNKFKVFKY” as the sequence, how does the “soluble fraction (log2)” value read?
The value was -0.094.

For “HMQAESLTVVRSAELKADRFLDAATLQTLQTGQVVESLRTESGWVQVRIAGQQGWVRAMNVKGA”, which “soluble fraction (log2)” value is on record?
Its value is -0.459.

With “HMNVDSLPGEKAVVIKTIDNLRGTGQAVVNGLEWSAKSKDETIIDEGKVVRIVAVEGVKLVVEEE” as the sequence, how does the “soluble fraction (log2)” value read?
The value was 0.0762.

For “HMTKVKIDRLFSIVQMLVNRKSVTAKELADYFNVSVRTIYRDIEILSANGIPIYATQGKGGGISILEN”, which “soluble fraction (log2)” value is on record?
The value was -1.05.

For “HMEGVSNLIVSVTRVKVTVDLSQAKVYLSIFPSEQAAFYLNALQQNRFQLKHDLSQLLKNQLRRIPTLQF”, which “soluble fraction (log2)” value is on record?
The value was 0.283.

For “HMTKLTPLEVNLYAKKLANDPEFGSKHIEPGESFSQAEERLRVQLSQQEYVQKYSKYLKKLKASA”, which “soluble fraction (log2)” value is on record?
The value was 0.0851.

Which “soluble fraction (log2)” value does the source give for “HMNSKSDDELLSKTTSLLIHAAKIDENYTDKEKEIIKKTLIQLGVKESKADQIMLTAEINEE” here?
The value was ≥ 0.62.

With “HMKRPEPESPEAERRSQRAADWLVRRDRGLTAAEQDEFLQWLAIDPRHGEWFALHRSVVGEFSA” as the sequence, how does the “soluble fraction (log2)” value read?
The value was -0.192.

With “HMANKLSEQIYGSILKDIVNGVYAPREFISEAQIAAKYGVSKAPVKEAMHILASEGFLLSYPKRGYMVN” as the sequence, how does the “soluble fraction (log2)” value read?
The value was -0.347.

With “HMSEKAQSENEDLIKILALLIHAAKIDENYSEKEKKLIISFAEMSSNKKLDREQINSLVDKAEQYEK” as the sequence, how does the “soluble fraction (log2)” value read?
Its value is -0.17.

With “HMGGYVTGTIDLTKFGYAFVITEESEDDVFVAARNLNTALHGDQVKVLLYARHKGKRPEGEVVEIISRSRA” as the sequence, how does the “soluble fraction (log2)” value read?
Its value is -1.11.

With “HMATLTPLGRLQLARYHAQERATLAATAERFQVSTTTVRRWVGRYHQVVAAGGRPTTADMQDRPSRP” as the sequence, how does the “soluble fraction (log2)” value read?
The value was -2.

For “HMTEGDRLARRILRLVRNKPNGYPEVELMKATVLDWNHFQRSISSLEMAGILERRDPGDGTPPVWVEKR”, which “soluble fraction (log2)” value is on record?
The value was -0.688.

Which “soluble fraction (log2)” value does the source give for “HMAEKAVELTENEKAIQTILSNGALEIGELKTKLELSGKQWDVALKGLAKHGITQVSKVEGVVTVGL” here?
The value was 0.136.

Which “soluble fraction (log2)” value does the source give for “HMVITPESVKEQVLAIISKSPAQGFNYKQISKRLNINDPSERKMVSDILRELSESGTIEEINKGKYRAKV” here?
Its value is -0.0556.

With “HMGEELIEIQNLRNKERREAEAILKNLDLVPVIQEQFDDTVPINRVITTDPGPDSTVKKGTTVMIYVSKGP” as the sequence, how does the “soluble fraction (log2)” value read?
The value was 0.253.

Which “soluble fraction (log2)” value does the source give for “HMGANSAYMAMRDRIQQRLLAELSPGVTRSDTAEVRRVVERIFNETTAELGLPLSRLERNDIFDLVLADIL” here?
Its value is -0.792.

Which “soluble fraction (log2)” value does the source give for “HMIHTYVETRKVGNNDGLIRVDNKYYRVPQHLVGMKVQIQIDEATISVLQGGVMVATLDKTADVFNPQA” here?
The value was -0.782.

For “HMPPSGPWEQDPPSEAQLKPFNEAMKRTADIDVDLYEKAKKALNDGTITKGNIYDWINREDSPWVLQDGS”, which “soluble fraction (log2)” value is on record?
Its value is 0.141.

With “HMAKTGMDALVGRRVVLTKAIAGEGEGLVAVDGDVWRATSPAGSAIPKGTEVRITGYRSIVLEVEPI” as the sequence, how does the “soluble fraction (log2)” value read?
Its value is -0.184.

Which “soluble fraction (log2)” value does the source give for “HMALPHEIKQKWLEEIMTMLRSSDSVTINKVYLHFPENKSHWVDEILTDLSNTHMITRQHDFIRLKN” here?
Its value is -0.282.

For “HMEFDFGAILSGNGGSELYSGYSAEQKAALVEAAKADGMDVEFGADGSTTFKDKDGSEVVQKADGTWTV”, which “soluble fraction (log2)” value is on record?
Its value is 0.18.

Which “soluble fraction (log2)” value does the source give for “HMLRRNQVQSQVIPRENGSYVVELQLRDDVDSILRLELTAATEAMARDLADRFRQDPEGVYTRLLSALY” here?
The value was -0.789.

For “HMEALASESVKDKIRKIIDSEDPSRPMSDQRIKEMLKAANIDIARRTVTKYREAMNILSSTKRRQV”, which “soluble fraction (log2)” value is on record?
Its value is -0.272.

Which “soluble fraction (log2)” value does the source give for “HMKKILIVTNRSAGMVVYTIPEEGIRREFTPGETKKIPFEELEKLAYLSGGRTLMENFLKIVDTETTEELG” here?
The value was -0.543.

Which “soluble fraction (log2)” value does the source give for “HMVDSVIGSVGRVTVDIDNVEALGQVKLGGMEWSARSTSGDPIPAGTEVRVDRVEGVKVFVTPV” here?
The value was -0.00113.

Which “soluble fraction (log2)” value does the source give for “HMLFSEKLKQAMQDLHLNQIQVVGLTGKSKGSISQYISGKQVPSEATQRDIAISLGLEENYFSKK” here?
Its value is 0.282.

With “HMSTMKIVRVKSNLKIGQEITSKDIEVVEVGAYNMPSEVMKNSEDVIGKYASAEMIKGEYVLAAKISDTP” as the sequence, how does the “soluble fraction (log2)” value read?
Its value is 0.479.

With “HMEEFGRRLKERMIDKNMTEAELAQKTELWSSILTSYLKGERFPGYYTLLRIAEALDVSIDFLLGLRDEPE” as the sequence, how does the “soluble fraction (log2)” value read?
Its value is -1.54.

Which “soluble fraction (log2)” value does the source give for “HMEMKMGHIISKLRYESGYSQVELAEKIGITKGAVGMYETDKRKPDYDTLIKLADLFNVSTDYLLS” here?
The value was 0.0501.

For “HMSTMTGTVDTPGASLNVRTGAWGPIVGQLAHGSKVTIIGSSGDWFKISYNGATRYVHKNYVNTT”, which “soluble fraction (log2)” value is on record?
The value was -0.153.

For “HMYYNDEELDGYRGTPSDAYSDNAVEEFREVLYTLREDEVSGWVRSLQLRGIFLPDAIKDETFLI”, which “soluble fraction (log2)” value is on record?
The value was -1.59.

For “HMPQTDDSEPLGKYGRMRLAYLKNQRPVLYNQMLLNGTLWPHLQDVQKTAYEWLERTMTTLLDK”, which “soluble fraction (log2)” value is on record?
Its value is -0.0745.

For “HMIPKIIDITDLNEEVREVIEEYMKRKRVEKYHIYQDSKGQIFIISGSAIIRYDSKLNNLYYL”, which “soluble fraction (log2)” value is on record?
The value was -0.405.

With “HMGNKDAQLVHLAKMNEIQIELMKTGRGYMVTDQNVYNLAKKMGENMGFKHPDLFLTDPAKV” as the sequence, how does the “soluble fraction (log2)” value read?
The value was -0.0553.

Which “soluble fraction (log2)” value does the source give for “HMYTVVVGDSPSLIADKTGVPLKELTAMNPNLSDNFLPGKQLL” here?
Its value is 0.000825.

Which “soluble fraction (log2)” value does the source give for “HMKNPLIIGMTKDKIIELIGMPDNIKFLDSSLSKSEVWNYDKFGKKLYIKDEKLYQIENIEE” here?
The value was 0.016.

For “HMQMSDTAAIGKIVDEVFAENPAALEDYAKGKTNVVDWLTGQVMKKSRGQANPGIASELVQKRLADF”, which “soluble fraction (log2)” value is on record?
Its value is 0.122.

With “HMKIEEVIEKLKTDSIISRKEYEDIVRQINPNLSDRTIFWQLAKLQDMGVLQKIGQNSFHVRN” as the sequence, how does the “soluble fraction (log2)” value read?
The value was -0.26.

With “HMEPLPDIPRGTRVSHQTAPADGDMPERRETGWTMTEPIRAQDGLAYVGVSVYGRGVVMLPVNSLSII” as the sequence, how does the “soluble fraction (log2)” value read?
Its value is -0.319.

For “HMPPSQRVNRILSLAGITSRRKADEYILEGRVTVNGEVLKEPGAKAVWGTDDIRVDGKPIPALS”, which “soluble fraction (log2)” value is on record?
Its value is 0.1.

With “HMERDVNQLTPRERDILKLIAQGLPNKMIARRLDITESTVKVHVKHMLKKMKLKSRVEAAVWVHQERI” as the sequence, how does the “soluble fraction (log2)” value read?
The value was -1.38.

Which “soluble fraction (log2)” value does the source give for “HMGNFQNIFRKLRTSSNLTQNAIAEKLGISRSTIGMYETGAREPDFETLEKIADYFNVDTDFLLGRTNQTT” here?
The value was -0.106.

For “HMIDIDTILKKYKPGRRDELIPLMQEIQEVYGHLSEEAVVKIGTYVGLSTTKIYGLATFYDQFRF”, which “soluble fraction (log2)” value is on record?
Its value is -1.24.

Which “soluble fraction (log2)” value does the source give for “HMYKMKDRIKKIMEMQRTTQQDFADQLKIAPATLSSIFTGRTRPTLAIVDAIKSRFPQISTDWLMFGKGDM” here?
The value was -0.219.

With “HMEQVKFFDAKVITTPPNRLKTRYTPAGNLRPEADWLQSGAIVPVYETSGAGWYRIGYQTWASAEWMQRLD” as the sequence, how does the “soluble fraction (log2)” value read?
Its value is -0.934.

For “HMAGISQGLAENVERRITTLLREQKEVPVHDIDFPGISRETVGQVLHQMVQEEKLLLDDGMISLSPNQ”, which “soluble fraction (log2)” value is on record?
The value was 0.143.

With “HMSSTSISFNDFQKYWLSNDIKSFQLREDKMTVQGSLKNGTAYETVVPSERLFQFIGQHPKD” as the sequence, how does the “soluble fraction (log2)” value read?
Its value is 0.368.

With “HMTMEQAEFLSRQFNLLSQRLNDPSIEWQDIADLRSEYTGEDEHRDTIRKGAKLFYEYLEAGWIKN” as the sequence, how does the “soluble fraction (log2)” value read?
The value was -0.581.

With “HMRLDPENFYIRAVTYYRNGDWQRALSQLDEAIKLGTAIEYPALQARIYLEQGMRDEFIAASEK” as the sequence, how does the “soluble fraction (log2)” value read?
The value was -1.71.
